Source: patent US7341836B2, “Modified cyclic nucleotide gated ion channels” (The Regents of the University of Colorado, priority 2001, dated 2008)
Residue numbers refer to the chain shown, from its start. In names and notes the source's numbering stands.

Experiments:
[1] = tested on: PDE activity in GH4C1 cells; assay: Effect of PDE inhibitors, forskolin and VIP on cAMP levels (Ca2+ influx through CNG channels); format: cell-based, rat; details: C460W/E583M channels
Description: To further test the utility of this approach, PDE activity in excitable GH4C1 pituitary cells was examined. In all of the experiments shown (See, FIGS. 13-14, and Table 2), 1 μM nimodipine was added at time zero to block Ca^2+ influx though voltage-gated Ca^2+ channels (triggered by membrane depolarization due to Ca^2+ and Na^+ influx through CNG channels). […] FIGS. 13 and 14 each depict experiments done on a single batch of cells. As before, similar results were obtained on three other batches. In the experiments that produced the data shown in Table 2, cAMP concentrations were monitored using Ca^2+ influx through C460W/E583M channels. […] Either 100 μM IBMX or vehicle (-IBMX; control) were added at time zero. Then, 50 μM forskolin were added at 180 seconds d(ΔF/F0)/dt, which is proportional to the Ca^2+ influx rate, was estimated as described in the Examples. Data are provided as mean±standard error. IBMX or vehicle was added at 60 seconds (first arrow in FIG. 13). Either 10 μM forskolin or 100 nM VIP were added at 240 seconds (second arrow in FIG. 13). In the absence of IBMX, large forskolin or VIP-induced increases in Ca^2+ influx were observed. […] This level of basal AC activity was quite different from that observed in HEK-293 cells (See, FIGS. 9 and 10). 1 μM nimodipine was added at time 0 to block endogenous voltage-gated Ca^2+ channels.
To identify the PDE family or families that regulate the local cAMP concentration in GH4C1 cells, cAMP accumulation was monitored in the presence and absence of PDE inhibitors (See, Table 2). Again, the high cAMP affinity C460W/E583M channels were used. PDE inhibitors were added at 60 s. Although the addition of IBMX alone triggered Ca^2+ influx, 10 μM forskolin were added at 240 s as a positive control for CNG channel activity. […] This PDE is likely to have a low Km for cAMP because it is capable of regulating cAMP at concentrations too low for the WT or Δ61-90/C460W/E583M channels to detect. Thus, it is contemplated that a Ca^2+-CaM stimulated PDE (type I) is primarily responsible for controlling basal cAMP signals in GH4C1 cells.
In addition, PDE activity was monitored using Δ61-90/C460W/E583M channels to detect changes in cAMP concentration (See, FIG. 14). PDE inhibitors and forskolin were added as described above. With this construct, it was not possible to observe changes in cAMP concentration due to inhibition of PDE activity alone. […] Inhibitors specific to other PDE types had no effect on the forskolin-induced Ca^2+ influx (data not shown). […] It is contemplated that Ca^2+ influx through the C460W/E583M channels was saturated at cAMP concentrations below the Km for this PDE. Thus, it is contemplated that there are two different PDE types that regulate local cAMP signals in GH4C1 cells: a low Km, 8-methoxymethyl-IBMX sensitive PDE (type I); and a high Km, RO-20-1724-, rolipram-sensitive PDE (type IV).
GH4C1 rat pituitary cells (ATCC) were maintained in 13 mL Ham's F-10 medium (Life Technologies) supplemented with 14.3 mM NaHCO3, 15% donor horse serum (Gemini), and 2.5% fetal bovine serum, pH 6.8, in 75 cm^2 flasks at 37° C. in a humidified atmosphere of 95% air and 5% CO2. Cells were split weekly (1:4) and washed with fresh medium twice weekly. Cells were plated at ˜60% confluence in 100 mm culture dishes twenty-four hours prior to infection with the CNG-channel-encoding adenovirus constructs (multiplicity of infection=50 plaque forming units per cell). Forty-eight hours post-infection cells were detached, resuspended in serum-containing medium, and assayed within 12 hours.
In this Example, experiments conducted to examine the response of excitable GH4C1 pituitary cells to stimulation by either forskolin or the hormone vasoactive intestinal peptide (VIP), in the presence of absence of PDE inhibitors are described. […]

PDE III = details: cited from earlier work
[2] = tested on: HEK-293 cells expressing CNG channels; assay: Forskolin-induced cAMP accumulation monitored by Ca2+ influx (fura-2) through expressed CNG channels; format: cell-based, human
Description: Next, experiments were conducted to assess the ability of each channel construct to detect increases in local cAMP concentration. Changes in cAMP concentration were detected using fura-2 to monitor Ca^2+ influx through CNG channels, as described in the Examples. Ca^2+ influx induced by different concentrations of forskolin, an AC activator, in the presence of 100 μM IBMX, a nonselective PDE inhibitor was measured. This approach allowed comparisons to be made between the cAMP sensitivities of the different channels to changes in cAMP, regardless of variations in expression levels between experiments. In HEK-293 cells expressing the WT channel, addition of forskolin was followed by a brief delay and an increase in Ca^2+ influx (See, FIG. 7, Panel A). The delay decreased and the rate of Ca^2+ influx increased in a dose-dependent manner. Neither effect was saturated at 50 μM forskolin. In cells expressing the E583M channel, addition of forskolin was also followed by a brief delay and an increase in Ca^2+ influx (FIG. 7, Panel B). As with the WT channel, the delay and the initial rate of Ca^2+ influx were dose-dependent. […] In cells expressing the Δ61-90/C460W/E583M channel, addition of forskolin caused similar increases in Ca^2+ influx as the E583M channel, including saturation of the delay and rate of influx at 20 μM (compare FIG. 7, Panel B with FIG. 7, Panel D). The increased response of the modified channels to forskolin treatment is consistent with the apparent cAMP affinities measured in excised patches in the absence of Ca^2+-CaM (C460W/E583M>E583M˜Δ61-90/C460W/E583>WT channels). There are several factors that may have contributed to the apparent lack of a Ca^2+-CaM effect on the channels.
Briefly, HEK-293 were maintained in MEM (Life Technologies Inc.) supplemented with 26.2 mM NaHCO3, 10% (v/v) fetal bovine serum (Gemini), penicillin (50 μg/mL), and streptomycin ([…]), pH 7.0, at 37° C. in a humidified atmosphere of 95% air and 5% CO2. Cells were plated at ˜60% confluence in 100 mm culture dishes twenty-four hours prior to infection with the CNG-channel-encoding adenovirus constructs (multiplicity of infection=10 plaque forming units per cell). […] Twenty-four hours post-infection cells were detached with phosphate-buffered saline containing 0.03% EDTA, resuspended in serum-containing medium, and assayed within 12 hours.

[3] = tested on: rat olfactory CNG channel α subunit; assay: Excised inside-out patch recordings, cyclic nucleotide dose-response of CNG channel constructs; format: biochemical; details: for Imax^cGMP/Imax^cAMP: current at saturating cGMP divided by current at saturating cAMP
Description: As described in greater detail herein, the effects of modifications to CNG channels were assessed using the Hill equation, I/Imax=[cNMP]^N/([cNMP]^N+K1/2^N), where I/Imax is the fraction of maximal current, cNMP represents cyclic nucleotide, K1/2 is the concentration that gives half-maximal current, and N is the Hill coefficient, an index of cooperativity. I/Imax^cGMP/Imax^cAMP is the current induced by saturating cGMP divided by the current induced by saturating cAMP. Data (mean±standard deviation of three experiments) were obtained from excised membrane patches using standard patch clamp techniques.
To assess the cyclic nucleotide sensitivity of different CNG channel constructs, excised, inside-out patch recordings were made at room temperature (20-21° C.) using an Axopatch-200A patch clamp amplifier (Axon Instruments Inc.). Pipettes were pulled from borosilicate glass and heat polished. Pipettes were lowered onto the cells and gigaohm seals were formed. Patches were excised by shearing cells from the pipette with a jet of liquid. Ionic currents were elicited by 250 ms pulses to membrane potentials of +50 and −50 mV from a holding potential of 0 mV. Current records were sampled at five times the filter setting and stored on an IBM compatible computer. Records were corrected for errors due to series resistance (pipette resistance was 4.1 ±0.1 MΩ). Both the pipette and bath solutions contained (mM): 130 NaCl, 2 HEPES, 0.02 EDTA, and 1 EGTA, pH 7.6. Cyclic nucleotide-induced currents were obtained from the difference between currents in the presence and absence of cyclic nucleotides. Dose response curves for cAMP and cGMP were obtained at +50 and −50 mV in the same patch. The effects of the modifications were assessed using the Hill equation, I/Imax=[cNMP]^N/([cNMP]^N+K1/2^N), where I/Imax is the fraction of maximal current, cNMP represents cyclic nucleotide, K1/2 is the concentration that gives half-maximal current, and N is the Hill coefficient, an index of cooperativity. K1/2 and N for cAMP were 36±5 μM, 10±2 μM, 1.0±0.3 μM, and […] for WT, E583M, C460/E583M, and Δ61-90/C460W/E583M channels, respectively (See, Rich et al., J. Gen. Physiol. [2001], supra).
The cyclic nucleotide sensitivity of the C460W/E583M CNG channel was assessed in excised, inside-out patches as known in the art (See, Rich et al. [2001], supra). K1/2 and N were 1.1±0.3 μM and 2.1±0.4 at +50 mV; and 1.0±0.3 μM and 2.0 ±0.3 at −50 mV (n=11). With these values, the cAMP concentration could be calculated from currents measured in perforated patch experiments (Rich et al. Proc. Natl. Acad. Sci. [2001], supra).

## C[C@@H]1C(=O)NC2=Nc3cccc(Cl)c3CN21 [Quazinone]
[1]; basal cAMP, inhibitor concentration (μM)
  d(ΔF/F0)/dt: 0 s⁻¹
PDE III
  IC50: 600 nM

## C=C[C@@]1(C)CC(=O)[C@]2(O)[C@@]3(C)[C@@H](O)CCC(C)(C)[C@@H]3[C@H](O)[C@H](OC(C)=O)[C@@]2(C)O1 [forskolin]
[2]
  forskolin-induced increase in cAMP concentration averaged throughout the accessible cell volume: 1 to 2 µM
[2]; local, near plasma membrane
  forskolin-induced increase in cAMP concentration measured using CNG channels: > 25 µM

## vasoactive intestinal peptide [VIP]
[1]; 10 μM forskolin or 100 nM VIP after IBMX or vehicle
  cAMP accumulation and Ca2+ influx after AC stimulation: caused additional cAMP accumulation and Ca^2+ influx

B1: E583M: modified rat olfactory cyclic nucleotide-gated ion channel containing the E583M mutation, SEQ ID NO:5 (protein, listed as Rattus norvegicus)
chain: MMTEKSNGVKSSPANNHNHHPPPSIKANGKDDHRAGSRPQSVAADDDTSPELQRLAEMDTPRRGRGGFQRIVRLVGVIRDWANKNFREEEPRPDSFLERFRGPELQTVTTHQGDDKGGKDGEGKGTKKKFELFVLDPAGDWYYRWLFVIAMPVLYNWCLLVARACFSDLQRNYFVVWLVLDYFSDTVYIADLIIRLRTGFLEQGLLVKDPKKLRDNYIHTLQFKLDVASIIPTDLIYFAVGIHSPEVRFNRLLHFARMFEFFDRTETRTSYPNIFRISNLVLYILVIIHWNACIYYVISKSIGFGVDTWVYPNITDPEYGYLAREYIYCLYWSTLTLTTIGETPPPVKDEEYLFVIFDFLIGVLIFATIVGNVGSMISNMNATRAEFQAKIDAVKHYMQFRKVSKDMEAKVIKWFDYLWTNKKTVDEREVLKNLPAKLRAEIAINVHLSTLKKVRIFQDCEAGLLVELVLKLRPQVFSPGDYICRKGDIGKEMYIIKEGKLAVVADDGVTQYALLSAGSCFGEISILNIKGSKMGNRRTANIRSLGYSDLFCLSKDDLMEAVTEYPDAKKVLEERGREILMKMGLLDENEVAASMEVDVQEKLEQLETNMDTLYTRFARLLAEYTGAQQKLKQRITVLETKMKQNHEDDYLSDGINTPEPTAAE
[2]; 100 μM IBMX, forskolin 0-50 μM
  forskolin concentration at which delay and rate of Ca2+ influx saturated: 20 µM
[3]; +50 mV
  Imax^cGMP/Imax^cAMP: 0.40 ± 0.10
[3]; −50 mV
  Imax^cGMP/Imax^cAMP: 0.35 ± 0.16
[3]; excised patches
  current elicited by saturating cGMP as % of the current elicited by saturating cAMP: ~40%

B2: WT: wild-type rat olfactory cyclic nucleotide gated channel α subunit, amino acid sequence SEQ ID NO:8 (protein, listed as Rattus norvegicus)
chain: B1 chain with M583E
[3]; +50 mV
  Imax^cGMP/Imax^cAMP: 1.0
[3]; −50 mV
  Imax^cGMP/Imax^cAMP: 1.0
